Laboratory results taken from paper PMC11532494 (Nature Communications, 2024).
“And” between values parts separate entries of the source, which are not always exact repeats. Equal values may be shown once. Read-outs that look alike come from different tables or passages of the source. No end group written: not given here. *: point of attachment. AMC = Cc1cc(=O)oc2cc(N*)ccc12

What was measured:
Controls = experiment: Substrate screening assay (acyl-peptide-AMC), control enzymes; format: biochemical
VsHdaH (1b) = format: biochemical, Vibrio sp.; settings: VKDAC
BsAcuC (2c) = target: T1, BsAcuC (2c) (Bacillus subtilis, UniProt P39067); experiment: Substrate screening assay (acyl-peptide-AMC); format: biochemical; settings: BsAcuC (2c); for [AMC]: Transform RFU in [AMC]
T1 construct: made in house; host or cells: E. coli BL21 (DE3)
T1 sequence (P39067 1-387): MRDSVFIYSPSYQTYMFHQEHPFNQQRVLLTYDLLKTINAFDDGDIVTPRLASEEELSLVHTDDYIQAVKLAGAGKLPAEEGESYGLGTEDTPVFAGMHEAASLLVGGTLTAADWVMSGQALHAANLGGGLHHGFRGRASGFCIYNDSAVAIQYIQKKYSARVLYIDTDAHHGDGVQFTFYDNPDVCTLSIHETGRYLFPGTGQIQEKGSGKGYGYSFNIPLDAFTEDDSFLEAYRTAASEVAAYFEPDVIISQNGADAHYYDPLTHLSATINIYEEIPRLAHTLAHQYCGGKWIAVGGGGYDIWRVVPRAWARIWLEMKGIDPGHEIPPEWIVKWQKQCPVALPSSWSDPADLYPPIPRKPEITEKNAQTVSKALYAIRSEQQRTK
Experimental: (§1) Experiments with SIRT2 and SIRT5 were supplemented with NAD^+ (500 µM). Thereafter, a solution of trypsin (25 µL, 5.0 mg/mL; final concentration of 2.5 mg/mL) was added, and the development of the assay was allowed to proceed for 90 min at room temperature before fluorescence analysis. […] To this end, a single category is given to all conversions >48% on the heatmap. […] For the H4-derived peptide LGKbio no positive control was available.

PsApaH (4) = PsApaH (4) (Pseudomonas sp. M30-35, UniProt A0A1Y0KY79); format: biochemical; settings: PsApaH (4)
Experimental: as §1

VcHdaH (5b) = format: biochemical, Vibrio cholerae; settings: VcHdaH (5b); for [AMC]: Transform RFU in [AMC]
KpHdaH (1b) = KpHdaH (1b) (Klebsiella pneumoniae, UniProt A0A377Z5F6); format: biochemical; settings: KpHdaH (1b)
RwDmhA (1b) = RwDmhA (1b) (Rhizorhabdus wittichii, UniProt A0A067XIQ6); format: biochemical; settings: RwDmhA (1b)
RsPrpH (1b) = experiment: Substrate screening assay (acyl-peptide-AMC); format: biochemical, Rhizorhabdus sp.; settings: RsPrpH (1b); for [AMC]: Transform RFU in [AMC]

| Substance | Relative Fluorescene Units (RFU) (VsHdaH (1b); Transform RFU*2, Sample 1) | Relative Fluorescene Units (RFU) (VsHdaH (1b); Transform RFU*2, Sample 2) | Relative Fluorescene Units (RFU) (VsHdaH (1b); Sample 1) | Relative Fluorescene Units (RFU) (VsHdaH (1b); Sample 2) | Relative Fluorescene Units (RFU) (BsAcuC (2c); Sample 1) | Relative Fluorescene Units (RFU) (BsAcuC (2c); Sample 2) | [AMC] (BsAcuC (2c); Sample 1) | [AMC] (BsAcuC (2c); Sample 2) | Relative Fluorescene Units (RFU) (BsAcuC (2c); Transform RFU*2, Sample 1) | Relative Fluorescene Units (RFU) (BsAcuC (2c); Transform RFU*2, Sample 2) | Relative Fluorescene Units (RFU) (PsApaH (4); Sample 1) | Relative Fluorescene Units (RFU) (PsApaH (4); Sample 2) | Relative Fluorescene Units (RFU) (PsApaH (4); Transform RFU*2, Sample 1) | Relative Fluorescene Units (RFU) (PsApaH (4); Transform RFU*2, Sample 2) | [AMC] (VcHdaH (5b); Sample 1) | [AMC] (VcHdaH (5b); Sample 2) | Relative Fluorescene Units (RFU) (VcHdaH (5b); Transform RFU*2, Sample 1) | Relative Fluorescene Units (RFU) (VcHdaH (5b); Transform RFU*2, Sample 2) | Relative Fluorescene Units (RFU) (VcHdaH (5b); Sample 1) | Relative Fluorescene Units (RFU) (VcHdaH (5b); Sample 2) | other results |
| --- | --- | --- | --- | --- | --- | --- | --- | --- | --- | --- | --- | --- | --- | --- | --- | --- | --- | --- | --- | --- | --- |
| QPKKhex (QPKK-{AMC}; not fully specified (residue 4); printed as QPKKhex; also: hexanoyl-lysine (which Lys not given here); UniProt P04637 317-320, looked up, fragment) | 72 RFU | 194 RFU | 36 RFU | 97 RFU | 1720 RFU | 1255 RFU | 1679.69 nM | 1225.59 nM | 3440 RFU | 2510 RFU | 128 RFU | 61 RFU | 256 RFU | 122 RFU | -22.46 nM | 121.09 nM | -46 RFU | 248 RFU | -23 RFU | 124 RFU | [AMC] (Controls): 3.01563 µM and 4.0166 µM; Relative Fluorescene Units (RFU) (KpHdaH (1b); Sample 1): 170 RFU; Relative Fluorescene Units (RFU) (KpHdaH (1b); Sample 2): 14 RFU; Relative Fluorescene Units (RFU) (KpHdaH (1b); Transform RFU*2, Sample 1): 340 RFU; Relative Fluorescene Units (RFU) (KpHdaH (1b); Transform RFU*2, Sample 2): 28 RFU |
| QPKKlau (QPKK-{AMC}; not fully specified (residue 4); printed as QPKKlau; also: lauroyl-lysine (which Lys not given here); UniProt P04637 317-320, looked up, fragment) | -308 RFU | 12 RFU | -154 RFU | 6 RFU | 1004 RFU | 695 RFU | 980.47 nM | 678.71 nM | 2008 RFU | 1390 RFU | 196 RFU | 66 RFU | 392 RFU | 132 RFU | -112.30 nM | -47.85 nM | -230 RFU | -98 RFU | -115 RFU | -49 RFU | [AMC] (Controls): 10.32715 µM and 12.34863 µM; Relative Fluorescene Units (RFU) (KpHdaH (1b); Sample 1): -177 RFU; Relative Fluorescene Units (RFU) (KpHdaH (1b); Sample 2): -96 RFU; Relative Fluorescene Units (RFU) (KpHdaH (1b); Transform RFU*2, Sample 1): -354 RFU; Relative Fluorescene Units (RFU) (KpHdaH (1b); Transform RFU*2, Sample 2): -192 RFU |
| QPKKmyr (QPKK-{AMC}; not fully specified (residue 4); printed as QPKKmyr; also: myristoyl-lysine (which Lys not given here); UniProt P04637 317-320, looked up, fragment) | 354 RFU | -1178 RFU | 177 RFU | -589 RFU | 313 RFU | 767 RFU | 305.66 nM | 749.02 nM | 626 RFU | 1534 RFU | 40 RFU | 113 RFU | 80 RFU | 226 RFU | -96.68 nM | -269.53 nM | -198 RFU | -552 RFU | -99 RFU | -276 RFU | Relative Fluorescene Units (RFU) (Controls): 6155 RFU and 7393 RFU; [AMC] (Controls; Transform RFU in [AMC], Controls, Sample 1): 6.01074 µM; [AMC] (Controls; Transform RFU in [AMC], Controls, Sample 2): 7.21973 µM; Relative Fluorescene Units (RFU) (Controls; Transform RFU*2, Controls, Sample 1): 12310 RFU; Relative Fluorescene Units (RFU) (Controls; Transform RFU*2, Controls, Sample 2): 14786 RFU; Relative Fluorescene Units (RFU) (RwDmhA (1b); Sample 1): -346 RFU; Relative Fluorescene Units (RFU) (RwDmhA (1b); Sample 2): -865 RFU; Relative Fluorescene Units (RFU) (RwDmhA (1b); Transform RFU*2, Sample 1): -692 RFU; Relative Fluorescene Units (RFU) (RwDmhA (1b); Transform RFU*2, Sample 2): -1730 RFU; Relative Fluorescene Units (RFU) (RsPrpH (1b); Sample 1): -108 RFU; Relative Fluorescene Units (RFU) (RsPrpH (1b); Sample 2): -824 RFU; [AMC] (RsPrpH (1b); Sample 1): -105.47 nM; [AMC] (RsPrpH (1b); Sample 2): -804.69 nM; Relative Fluorescene Units (RFU) (RsPrpH (1b); Transform RFU*2, Sample 1): -216 RFU; Relative Fluorescene Units (RFU) (RsPrpH (1b); Transform RFU*2, Sample 2): -1648 RFU; Relative Fluorescene Units (RFU) (KpHdaH (1b); Sample 1): 178 RFU; Relative Fluorescene Units (RFU) (KpHdaH (1b); Sample 2): 116 RFU; Relative Fluorescene Units (RFU) (KpHdaH (1b); Transform RFU*2, Sample 1): 356 RFU; Relative Fluorescene Units (RFU) (KpHdaH (1b); Transform RFU*2, Sample 2): 232 RFU |
| QPKKpal (QPKK-{AMC}; not fully specified (residue 4); printed as QPKKpal; also: palmitoyl-lysine (which Lys not given here); UniProt P04637 317-320, looked up, fragment) | 82 RFU | -38 RFU | 41 RFU | -19 RFU | 139 RFU | 15 RFU | 135.74 nM | 14.65 nM | 278 RFU | 30 RFU | 40 RFU | 14 RFU | 80 RFU | 28 RFU | 22.46 nM | -39.06 nM | 46 RFU | -80 RFU | 23 RFU | -40 RFU | [AMC] (Controls): 8.07129 µM and 10.51367 µM; Relative Fluorescene Units (RFU) (KpHdaH (1b); Sample 1): 9 RFU; Relative Fluorescene Units (RFU) (KpHdaH (1b); Sample 2): -4 RFU; Relative Fluorescene Units (RFU) (KpHdaH (1b); Transform RFU*2, Sample 1): 18 RFU; Relative Fluorescene Units (RFU) (KpHdaH (1b); Transform RFU*2, Sample 2): -8 RFU |
